Results reported in PMC4260256, “A novel serine hydroxymethyltransferase from Arthrobacter nicotianae: characterization and improving catalytic efficiency by rational design” (BMC Biotechnology, 2014).

Tested on: NC(C(=O)O)C(O)c1ccccc1
Assay: purified protein
Settings: pH 7.8; 40.0 °C

Substance: AnSHMT (Glutamicibacter nicotianae)
- Km: 57.86 ± 0.07 mM
- kcat/Km: 27.7 M⁻¹ s⁻¹
